B1: His-SND1 (16-339), SN1/2 domains, wild type (other)
chain: VPTVQRGIIKMVLSGCAIIVRGQPRGGPPPERQINLSNIRAGNLARRAAATQPDAKDTPDEPWAFPAREFLRKKLIGKEVCFTIENKTPQGREYGMIYLGKDTNGENIAESLVAEGLATRREGMRANNPEQNRLSECEEQAKAAKKGMWSEGNGSHTIRDLKYTIENPRHFVDSHHQKPVNAIIEHVRDGSVVRALLLPDYYLVTVMLSGIKCPTFRREADGSETPEPFAAEAKFFTESRLLQRDVQIILESCHNQNILGTILHPNGNITELLLKEGFARCVDWSIAVYTRGAEKLRAAERFAKERRLRIWRDYVAPTANLDQK
notes: also called His6-SND1 harboring the SN1/2 domains; not shown: N-terminal His tag (His6, His8 or His) with TEV site, pQlink vector
B2: GST-MTDH (364-582), wild type (other)
chain: YQWDVSRNQPYIDDEWSGLNGLSSADPNSDWNAPAEEWGNWVDEERASLLKSQEPIPDDQKVSDDDKEKGEGALPTGKSKKKKKKKKKQGEDNSTAQDTEELEKEIREDLPVNTSKTRPKQEKAFSLKTISTSDPAEVLVKNSQPIKTLPPATSTEPSVILSKSDSDKSSSQVPPILQETDKSKSNTKQNSVPPSQTKSETSWESPKQIKKKKKARRET
notes: not shown: N-terminal GST tag with TEV site, pQlink vector

Biological target: B2
Assay: pull-down by GST-MTDH (364-582) on glutathione resin, SDS-PAGE, Coomassie blue; normalised percentage of binding, mean±SEM of three experiments
Text: (§1) The proteins bound to GS4B were examined on SDS-PAGE and visualized by Coomassie blue staining. […] The bound proteins were examined as in (FIG. 22A). For both (FIG. 22A) and (FIG. 22B), experiments were repeated three times; representative results are shown. The normalized percentage of binding was averaged from three experiments; mean±SEM was shown below the data. (FIG. 22C) HEK293T cells were transfected with human HA-SND1, WT Myc-MTDH or Myc-MTDH with indicated single point mutation. Lysates were immunoprecipitated with anti-Myc antibody and immunoblotted with the indicated antibodies. (FIG. 22D) HEK293T cells were transfected with human Myc-MTDH, WT HA-SND1 or mutant HA-SND1 with indicated single point mutations or deletions. Lysates were immunoprecipitated with anti-Myc and immunoblotted with the indicated antibodies.
(§2) GST-Mediated Pull-Down Assay: ˜20 μg of GST-MTDH (different truncation forms and site mutants) was bound to 10 μl of glutathione resin via GST tag. The resin was washed with 200 μl assay buffer (25 mM Tris, PH8.0, 150 mM NaCl, 3 mM DTT) three times to remove the excess unbound protein. […] The mixture was washed with 200 μl assay buffer twice before examined by SDS-PAGE, and visualized by Coomassie blue staining. The experiments were repeated 3 times and the ratio of SND1 associated with GST-MTDH was analyzed by ImageJ.

Binder	% Maximum binding [%]
His-SND1(16-339) P43G/R324E (protein) single chain: VPTVQRGIIKMVLSGCAIIVRGQPRGGGPPERQINLSNIRAGNLARRAAATQPDAKDTPDEPWAFPAREFLRKKLIGKEVCFTIENKTPQGREYGMIYLGKDTNGENIAESLVAEGLATRREGMRANNPEQNRLSECEEQAKAAKKGMWSEGNGSHTIRDLKYTIENPRHFVDSHHQKPVNAIIEHVRDGSVVRALLLPDYYLVTVMLSGIKCPTFRREADGSETPEPFAAEAKFFTESRLLQRDVQIILESCHNQNILGTILHPNGNITELLLKEGFARCVDWSIAVYTRGAEKLRAAERFAKERRLEIWRDYVAPTANLDQK	9
B1	100
SND1 (16-339) R316E (negative control mutation outside the interface) (other, not shown: N-terminal His tag (His6, His8 or His) with TEV site, pQlink vector) VPTVQRGIIKMVLSGCAIIVRGQPRGGPPPERQINLSNIRAGNLARRAAATQPDAKDTPDEPWAFPAREFLRKKLIGKEVCFTIENKTPQGREYGMIYLGKDTNGENIAESLVAEGLATRREGMRANNPEQNRLSECEEQAKAAKKGMWSEGNGSHTIRDLKYTIENPRHFVDSHHQKPVNAIIEHVRDGSVVRALLLPDYYLVTVMLSGIKCPTFRREADGSETPEPFAAEAKFFTESRLLQRDVQIILESCHNQNILGTILHPNGNITELLLKEGFARCVDWSIAVYTRGAEKLRAAEEFAKERRLRIWRDYVAPTANLDQK	88
SND1 (16-339) R255E (other, not shown: N-terminal His tag (His6, His8 or His) with TEV site, pQlink vector) VPTVQRGIIKMVLSGCAIIVRGQPRGGPPPERQINLSNIRAGNLARRAAATQPDAKDTPDEPWAFPAREFLRKKLIGKEVCFTIENKTPQGREYGMIYLGKDTNGENIAESLVAEGLATRREGMRANNPEQNRLSECEEQAKAAKKGMWSEGNGSHTIRDLKYTIENPRHFVDSHHQKPVNAIIEHVRDGSVVRALLLPDYYLVTVMLSGIKCPTFRREADGSETPEPFAAEAKFFTESELLQRDVQIILESCHNQNILGTILHPNGNITELLLKEGFARCVDWSIAVYTRGAEKLRAAERFAKERRLRIWRDYVAPTANLDQK	2
SND1 (16-339) R324E (other, not shown: N-terminal His tag (His6, His8 or His) with TEV site, pQlink vector) VPTVQRGIIKMVLSGCAIIVRGQPRGGPPPERQINLSNIRAGNLARRAAATQPDAKDTPDEPWAFPAREFLRKKLIGKEVCFTIENKTPQGREYGMIYLGKDTNGENIAESLVAEGLATRREGMRANNPEQNRLSECEEQAKAAKKGMWSEGNGSHTIRDLKYTIENPRHFVDSHHQKPVNAIIEHVRDGSVVRALLLPDYYLVTVMLSGIKCPTFRREADGSETPEPFAAEAKFFTESRLLQRDVQIILESCHNQNILGTILHPNGNITELLLKEGFARCVDWSIAVYTRGAEKLRAAERFAKERRLEIWRDYVAPTANLDQK	26
SND1 (16-339) F250A (other, not shown: N-terminal His tag (His6, His8 or His) with TEV site, pQlink vector) VPTVQRGIIKMVLSGCAIIVRGQPRGGPPPERQINLSNIRAGNLARRAAATQPDAKDTPDEPWAFPAREFLRKKLIGKEVCFTIENKTPQGREYGMIYLGKDTNGENIAESLVAEGLATRREGMRANNPEQNRLSECEEQAKAAKKGMWSEGNGSHTIRDLKYTIENPRHFVDSHHQKPVNAIIEHVRDGSVVRALLLPDYYLVTVMLSGIKCPTFRREADGSETPEPFAAEAKAFTESRLLQRDVQIILESCHNQNILGTILHPNGNITELLLKEGFARCVDWSIAVYTRGAEKLRAAERFAKERRLRIWRDYVAPTANLDQK	9
His-SND1(16-339) P43G (other, mutant named only on the sheet) single chain: VPTVQRGIIKMVLSGCAIIVRGQPRGGGPPERQINLSNIRAGNLARRAAATQPDAKDTPDEPWAFPAREFLRKKLIGKEVCFTIENKTPQGREYGMIYLGKDTNGENIAESLVAEGLATRREGMRANNPEQNRLSECEEQAKAAKKGMWSEGNGSHTIRDLKYTIENPRHFVDSHHQKPVNAIIEHVRDGSVVRALLLPDYYLVTVMLSGIKCPTFRREADGSETPEPFAAEAKFFTESRLLQRDVQIILESCHNQNILGTILHPNGNITELLLKEGFARCVDWSIAVYTRGAEKLRAAERFAKERRLRIWRDYVAPTANLDQK	67
SND1 (16-339) R324A (other, not shown: N-terminal His tag (His6, His8 or His) with TEV site, pQlink vector) VPTVQRGIIKMVLSGCAIIVRGQPRGGPPPERQINLSNIRAGNLARRAAATQPDAKDTPDEPWAFPAREFLRKKLIGKEVCFTIENKTPQGREYGMIYLGKDTNGENIAESLVAEGLATRREGMRANNPEQNRLSECEEQAKAAKKGMWSEGNGSHTIRDLKYTIENPRHFVDSHHQKPVNAIIEHVRDGSVVRALLLPDYYLVTVMLSGIKCPTFRREADGSETPEPFAAEAKFFTESRLLQRDVQIILESCHNQNILGTILHPNGNITELLLKEGFARCVDWSIAVYTRGAEKLRAAERFAKERRLAIWRDYVAPTANLDQK	70
SND1 (16-339) Δ39-43 (deletion in the SN1 Lβ2-β3 loop) (other, also called 439-43; not shown: N-terminal His tag (His6, His8 or His) with TEV site, pQlink vector) VPTVQRGIIKMVLSGCAIIVRGQPPERQINLSNIRAGNLARRAAATQPDAKDTPDEPWAFPAREFLRKKLIGKEVCFTIENKTPQGREYGMIYLGKDTNGENIAESLVAEGLATRREGMRANNPEQNRLSECEEQAKAAKKGMWSEGNGSHTIRDLKYTIENPRHFVDSHHQKPVNAIIEHVRDGSVVRALLLPDYYLVTVMLSGIKCPTFRREADGSETPEPFAAEAKFFTESRLLQRDVQIILESCHNQNILGTILHPNGNITELLLKEGFARCVDWSIAVYTRGAEKLRAAERFAKERRLRIWRDYVAPTANLDQK	2

Biological target: B1
Assay: GST pull-down on glutathione resin, SDS-PAGE, Coomassie blue; normalised percentage of binding, mean±SEM of three experiments
Text: as §1, §2
Identification of MTDH and SND1 mutants deficient in binding: To gain insight into how the interface characterized above contributes to MTDH-SND1 interaction, structure-guided mutagenesis studies were performed.

Binder	% Maximum binding [%]
B2	100
GST-MTDH (364-582) E400R (other, not shown: N-terminal GST tag with TEV site, pQlink vector) YQWDVSRNQPYIDDEWSGLNGLSSADPNSDWNAPAERWGNWVDEERASLLKSQEPIPDDQKVSDDDKEKGEGALPTGKSKKKKKKKKKQGEDNSTAQDTEELEKEIREDLPVNTSKTRPKQEKAFSLKTISTSDPAEVLVKNSQPIKTLPPATSTEPSVILSKSDSDKSSSQVPPILQETDKSKSNTKQNSVPPSQTKSETSWESPKQIKKKKKARRET	70
GST-MTDH (364-582) D389R (other, not shown: N-terminal GST tag with TEV site, pQlink vector) YQWDVSRNQPYIDDEWSGLNGLSSARPNSDWNAPAEEWGNWVDEERASLLKSQEPIPDDQKVSDDDKEKGEGALPTGKSKKKKKKKKKQGEDNSTAQDTEELEKEIREDLPVNTSKTRPKQEKAFSLKTISTSDPAEVLVKNSQPIKTLPPATSTEPSVILSKSDSDKSSSQVPPILQETDKSKSNTKQNSVPPSQTKSETSWESPKQIKKKKKARRET	60
GST-MTDH (364-582) E400A (other, not shown: N-terminal GST tag with TEV site, pQlink vector) YQWDVSRNQPYIDDEWSGLNGLSSADPNSDWNAPAEAWGNWVDEERASLLKSQEPIPDDQKVSDDDKEKGEGALPTGKSKKKKKKKKKQGEDNSTAQDTEELEKEIREDLPVNTSKTRPKQEKAFSLKTISTSDPAEVLVKNSQPIKTLPPATSTEPSVILSKSDSDKSSSQVPPILQETDKSKSNTKQNSVPPSQTKSETSWESPKQIKKKKKARRET	80
GST-MTDH (364-582) N395A (other, not shown: N-terminal GST tag with TEV site, pQlink vector) YQWDVSRNQPYIDDEWSGLNGLSSADPNSDWAAPAEEWGNWVDEERASLLKSQEPIPDDQKVSDDDKEKGEGALPTGKSKKKKKKKKKQGEDNSTAQDTEELEKEIREDLPVNTSKTRPKQEKAFSLKTISTSDPAEVLVKNSQPIKTLPPATSTEPSVILSKSDSDKSSSQVPPILQETDKSKSNTKQNSVPPSQTKSETSWESPKQIKKKKKARRET	84

From patent US20190336574A1 (TRUSTEES OF PRINCETON UNIVERSITY, published 2019)
